B1: mu-105 (antibody, V domains shown)
VH: EVQLQQSGPELVKPGASVKMSCKASGYTFTDYYMNWVKQSHGKSLEWIGYIYPNNGGTGYNQRFKGKATLTADKSSSTAYMELRSLTSEDSAVYYCARWGGTRLGYYAMDYWGQGTSVTVSS
VL: DIVMTQSQKFMSTSVGDRVSVTCKASQNVGTNVVWYQQKPGQSPKLLIYWASTRHTGVPDRFTGSGSGTDFTLTISNVQSEDLADYFCQQYSRYPYTFGGGTKLEIK
B2: mu-128 (antibody, V domains shown)
VH: DVQLVESGGGLVQPGGSRKVSCAASGFTFSSFGMHWVRQAPEKGLEWVAYISRGSSTIYYADTVKGRFTISRDNPKNTLFLQMTSLRSEDTAMYYCARSGYGSSSYYFDYWGQGTTLTVSS
VL: ENVLTQSPAIMSASPREKVTMTCRASSSIRSSYLHWYQQKSGASPKLWIYSTSNLASGVPARFSGSGSGTSYSLTISSVEAEDAATYYCQQFSGYPLTFGGGTKLEIK
B3: mu-131 (antibody, V domains shown)
VH: EVQLQQSGPELVKPGASVKMSCKASGYTFTNYVMHWVKQKPGQGLEWIGYFNPYNDGTNYNEKFKGKATLTSDKSSNTAYMELSSLTSEDSAVYYCARGGVRRYFDVWGAGTTVTVSS
VL: DIQMTQSPSSLSASLGERVSLTCRASQDIGSNLNWLQLGPDGTIKRLIYATFSLDSGVPKRFSGSRSGSDYSLTISSLESEDFVDYYCQQYANFPPTFGGGTKLEIK
B4: mu-89 (antibody, V domains shown)
VH: EVQLVESGGDLVKPGGSLKLSCAASGFTFSSYGMSWVRQTPDKRLEWVATISSGGSYTYYPDSVKGRFTFSRDNAKNTLYLQMSSLKSEDTAMYYCVRQALRYHMDSWGQGTSVTVSS
VL: DIVMTQSQKFMSTSVGDRVSVTCKASQNVGTNVAWYQQKPGQSPKALIYSASYRYSGVPDRFTGSGSGTDFTLTISNVQSEDLADFFCQQYYSYPWTFGGGTKLEIK

biological target: human GPRC5D protein (human) (UniProt Q9NZD1); test: FACS, subclone culture supernatant on NCI-H929 cells (medium alone: MFI 8242)
Sequence (Q9NZD1 whole entry): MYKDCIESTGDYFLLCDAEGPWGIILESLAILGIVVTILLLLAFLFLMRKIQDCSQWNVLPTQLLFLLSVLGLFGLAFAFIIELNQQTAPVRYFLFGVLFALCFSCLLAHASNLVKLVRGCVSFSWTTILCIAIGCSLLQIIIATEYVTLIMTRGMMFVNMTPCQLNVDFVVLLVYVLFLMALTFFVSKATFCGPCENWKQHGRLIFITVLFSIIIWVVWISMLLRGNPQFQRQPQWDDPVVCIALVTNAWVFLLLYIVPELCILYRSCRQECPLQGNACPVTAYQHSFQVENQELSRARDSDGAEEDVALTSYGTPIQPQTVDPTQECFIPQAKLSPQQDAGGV

Row | Binder | MFI
1 | B1 | 13200
2 | B2 | 15700
3 | B3 | 12800
4 | B4 | 11900

Source: patent publication US20260226168A1
